Experimental data as given in patent publication US10428140B2, “Anti-EphA4 antibody” (EISAI R&D MANAGEMENT CO., LTD., priority 2015, dated 2019).
Changes are numbered by the printed parent chain.

B1: 133 (antibody, V domains shown)
VH: QVQLVQSGSELKKPGASVKVSCKASGYTFTDYSMHWVRQAPGQGLEWMGWINTETGEPTYAQGFTGRFVFSLDTSVSTAYLQISSLKAEDTAVYYCARIPLYYYGSRYWYFDVWGQGTTVTVSS
VL: EIVMTQSPATLSVSPGERATLSCRASENIYRNLAWYQQKPGQSPRLLIYAATNLADGIPARFSGSGSGTEYTLTISSLQSEDFAVYYCQHFWGTPWTFGQGTKVEIK
modifications: synthetic humanized antibody heavy chain variable region sequence; synthetic humanized antibody light chain variable region sequence
B2: 76 (antibody, V domains shown)
VH: B1 VH with E46K
VL: DIQMTQSPSSLSASVGDRVTITCRASENIYRNLAWYQQKPGKAPKLLVYAATNLADGVPSRFSGSGSGTDYTLTISSLQPEDFATYYCQHFWGTPWTFGQGTKVEIK
modifications: synthetic humanized antibody heavy chain variable region sequence; synthetic humanized antibody light chain variable region sequence
B3: 67 (antibody, V domains shown)
VH: B1 VH with V2I, E46K
VL: B2 VL
modifications: synthetic humanized antibody heavy chain variable region sequence; synthetic humanized antibody light chain variable region sequence
B4: 134 (antibody, V domains shown)
VH: B1 VH with E46K
VL: B1 VL
modifications: synthetic humanized antibody heavy chain variable region sequence; synthetic humanized antibody light chain variable region sequence
B5: 77 (antibody, V domains shown)
VH: B1 VH with Q62D, G63D, T65K
VL: B2 VL
modifications: synthetic humanized antibody heavy chain variable region sequence; synthetic humanized antibody light chain variable region sequence
B6: 78 (antibody, V domains shown)
VH: B1 VH with E46K, Q62D, G63D, T65K
VL: B2 VL
modifications: synthetic humanized antibody heavy chain variable region sequence; synthetic humanized antibody light chain variable region sequence
B7: 132 (antibody, V domains shown)
VH: B1 VH with V2I, E46K
VL: B1 VL
modifications: synthetic humanized antibody heavy chain variable region sequence; synthetic humanized antibody light chain variable region sequence
B8: 75 (antibody)
VH: B1 VH
VL: B2 VL
chain: ASTKGPSVFPLAPSSKSTSGGTAALGCLVKDYFPEPVTVSWNSGALTSGVHTFPAVLQSSGLYSLSSVVTVPSSSLGTQTYICNVNHKPSNTKVDKRVEPKSCDKTHTCPPCPAPPAAAPSVFLFPPKPKDTLMISRTPEVTCVVVDVSHEDPEVQFNWYVDGVEVHNAKTKPREEQFNSTFRVVSVLTVVHQDWLNGKEYKCKVSNKGLPAPIEKTISKTKGQPREPQVYTLPPSREEMTKNQVSLTCLVKGFYPSDIAVEWESNGQPENNYKTTPPMLDSDGSFFLYSKLTVDKSRWQQGNVFSCSVMHEALHNHYTQKSLSLSPG
modifications: synthetic humanized antibody heavy chain variable region sequence; synthetic humanized antibody light chain variable region sequence; synthetic antibody constant region sequence
B9: 135 (antibody, V domains shown)
VH: B1 VH with Q62D, G63D, T65K
VL: B1 VL
modifications: synthetic humanized antibody heavy chain variable region sequence; synthetic humanized antibody light chain variable region sequence

Key:
Test in all cases: Selectivity ELISA of humanized antibodies for human Eph receptor
Type in all cases: binding
Conditions in all cases: coated protein 1 nM
SEAP-His = SEAP-His (Homo sapiens, UniProt P05187)
SEAP-His, sequence (P05187 23-511 limits assumed): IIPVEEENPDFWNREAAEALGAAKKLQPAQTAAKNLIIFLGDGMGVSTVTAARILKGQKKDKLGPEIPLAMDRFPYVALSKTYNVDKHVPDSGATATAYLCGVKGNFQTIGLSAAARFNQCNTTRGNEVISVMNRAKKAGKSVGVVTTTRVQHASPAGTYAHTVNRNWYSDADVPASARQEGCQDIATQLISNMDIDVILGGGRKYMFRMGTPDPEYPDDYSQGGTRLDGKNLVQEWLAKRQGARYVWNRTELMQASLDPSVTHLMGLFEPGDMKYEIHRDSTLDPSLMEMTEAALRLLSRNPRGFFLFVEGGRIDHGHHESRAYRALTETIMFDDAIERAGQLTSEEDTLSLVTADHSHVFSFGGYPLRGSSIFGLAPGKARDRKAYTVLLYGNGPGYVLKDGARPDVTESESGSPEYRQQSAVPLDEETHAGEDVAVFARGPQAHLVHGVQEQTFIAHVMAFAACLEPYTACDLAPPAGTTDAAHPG
Procedure, shortened: (§1)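 Read-out is A450 after TMB development stopped with 1N H2SO4. Plates bore anti-His-captured human Eph extracellular region-SEAP-His proteins at 1 nM final, made in Expi293F cells. Humanized antibody binding ran 1 h at room temperature before HRP-labeled anti-IgG detection.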

human EphB4 = molecular target: T1, human EphB4 (Homo sapiens, UniProt P54760)
T1 construct: a protein of the extracellular region of each human Eph receptor fused with the SEAP protein and the His tag; made in house; host or cells: Expi293F cells
T1 sequence (P54760 16-539 limits assumed): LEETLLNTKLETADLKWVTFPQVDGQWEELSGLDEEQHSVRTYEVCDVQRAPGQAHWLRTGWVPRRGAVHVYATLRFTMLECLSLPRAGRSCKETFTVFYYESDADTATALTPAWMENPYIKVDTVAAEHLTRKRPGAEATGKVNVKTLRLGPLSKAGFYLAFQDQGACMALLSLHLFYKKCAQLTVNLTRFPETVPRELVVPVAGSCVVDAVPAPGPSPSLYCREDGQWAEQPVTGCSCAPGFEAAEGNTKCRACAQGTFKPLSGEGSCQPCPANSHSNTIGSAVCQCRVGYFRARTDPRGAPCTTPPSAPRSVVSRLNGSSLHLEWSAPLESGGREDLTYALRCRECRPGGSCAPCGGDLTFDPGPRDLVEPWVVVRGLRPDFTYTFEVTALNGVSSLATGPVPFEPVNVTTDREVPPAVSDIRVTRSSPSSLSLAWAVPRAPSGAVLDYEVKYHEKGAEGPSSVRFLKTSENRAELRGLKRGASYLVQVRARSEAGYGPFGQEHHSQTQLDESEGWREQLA
Procedure, shortened: as §1

human EphB2 = molecular target: T2, human EphB2 (Homo sapiens, UniProt P29323)
T2 construct: a protein of the extracellular region of each human Eph receptor fused with the SEAP protein and the His tag; made in house; host or cells: Expi293F cells
T2 sequence (P29323 19-543 limits assumed): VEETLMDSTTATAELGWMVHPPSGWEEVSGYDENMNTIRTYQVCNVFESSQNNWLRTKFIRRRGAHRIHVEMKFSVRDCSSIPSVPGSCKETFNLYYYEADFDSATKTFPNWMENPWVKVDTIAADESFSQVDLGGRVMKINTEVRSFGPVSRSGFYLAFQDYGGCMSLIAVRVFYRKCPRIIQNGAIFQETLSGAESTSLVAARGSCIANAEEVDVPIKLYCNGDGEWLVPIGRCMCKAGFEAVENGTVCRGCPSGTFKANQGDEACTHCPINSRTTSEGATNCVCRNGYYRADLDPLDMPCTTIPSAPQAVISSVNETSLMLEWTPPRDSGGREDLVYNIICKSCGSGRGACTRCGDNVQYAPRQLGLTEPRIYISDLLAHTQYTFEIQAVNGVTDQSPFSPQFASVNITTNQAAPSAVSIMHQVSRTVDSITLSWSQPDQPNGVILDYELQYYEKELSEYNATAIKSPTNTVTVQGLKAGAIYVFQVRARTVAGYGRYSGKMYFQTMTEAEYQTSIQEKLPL
Procedure, shortened: as §1

human EphA2 = molecular target: T3, human EphA2 (Homo sapiens, UniProt P29317)
T3 construct: a protein of the extracellular region of each human Eph receptor fused with the SEAP protein and the His tag; made in house; host or cells: Expi293F cells (culture supernatant)
T3 sequence (P29317 24-537 limits assumed): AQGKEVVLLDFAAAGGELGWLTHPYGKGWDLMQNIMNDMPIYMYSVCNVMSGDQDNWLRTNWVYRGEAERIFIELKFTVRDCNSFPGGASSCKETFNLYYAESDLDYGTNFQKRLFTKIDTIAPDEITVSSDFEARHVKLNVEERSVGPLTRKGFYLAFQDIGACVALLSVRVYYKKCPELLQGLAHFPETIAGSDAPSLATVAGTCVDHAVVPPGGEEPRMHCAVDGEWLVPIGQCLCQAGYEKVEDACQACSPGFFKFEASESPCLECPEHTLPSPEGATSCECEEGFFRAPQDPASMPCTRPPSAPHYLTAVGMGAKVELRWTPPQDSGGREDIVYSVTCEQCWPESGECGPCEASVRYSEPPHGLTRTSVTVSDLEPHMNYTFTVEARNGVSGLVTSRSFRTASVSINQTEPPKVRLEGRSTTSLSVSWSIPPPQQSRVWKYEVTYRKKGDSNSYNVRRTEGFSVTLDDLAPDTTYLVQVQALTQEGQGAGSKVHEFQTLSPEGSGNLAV
Procedure, shortened: as §1

human EphA3 = molecular target: T4, human EphA3 (Homo sapiens, UniProt P29320)
T4 construct: a protein of the extracellular region of each human Eph receptor fused with the SEAP protein and the His tag; made in house; host or cells: Expi293F cells (culture supernatant)
T4 sequence (P29320 21-541 limits assumed): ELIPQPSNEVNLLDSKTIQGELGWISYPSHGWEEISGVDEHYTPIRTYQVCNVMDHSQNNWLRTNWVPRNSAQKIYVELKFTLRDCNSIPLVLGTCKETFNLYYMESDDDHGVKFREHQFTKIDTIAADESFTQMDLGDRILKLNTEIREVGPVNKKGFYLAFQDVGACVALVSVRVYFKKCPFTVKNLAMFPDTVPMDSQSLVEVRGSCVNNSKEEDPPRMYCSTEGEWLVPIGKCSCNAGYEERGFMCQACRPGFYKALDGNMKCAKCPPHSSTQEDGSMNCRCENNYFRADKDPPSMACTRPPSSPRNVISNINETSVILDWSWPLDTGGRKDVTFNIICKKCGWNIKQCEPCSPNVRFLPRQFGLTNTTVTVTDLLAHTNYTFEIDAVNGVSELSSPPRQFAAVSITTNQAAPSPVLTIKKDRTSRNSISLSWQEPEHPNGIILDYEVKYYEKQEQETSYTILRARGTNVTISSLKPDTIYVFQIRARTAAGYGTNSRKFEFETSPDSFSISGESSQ
Procedure, shortened: as §1

| Molecule | SEAP-His: absorbance at 450 nm, percentage with respect to hEphA4-SEAP-His as 100% (SEAP-His) [%] | hEphB4-SEAP-: absorbance at 450 nm, percentage with respect to hEphA4-SEAP-His as 100% (human EphB4) [%] | hEphB2-SEAP-: absorbance at 450 nm, percentage with respect to hEphA4-SEAP-His as 100% (human EphB2) [%] | hEphA2-SEAP-: absorbance at 450 nm, percentage with respect to hEphA4-SEAP-His as 100% (human EphA2) [%] | hEphA3-SEAP-: absorbance at 450 nm, percentage with respect to hEphA4-SEAP-His as 100% (human EphA3) [%] |
| --- | --- | --- | --- | --- | --- |
| B1 | 4.7 | 4.9 | 4.6 | 4.7 | 5.0 |
| B2 | 5.5 | 5.2 | 4.9 | 4.8 | 4.9 |
| B3 | 5.0 | 4.9 | 4.7 | 4.6 | 4.8 |
| B4 | 5.1 | 5.1 | 5.1 | 5.0 | 5.0 |
| B5 | 4.7 | 4.5 | 4.5 | 4.5 | 4.5 |
| B6 | 5.3 | 5.1 | 5.1 | 4.9 | 5.1 |
| B7 | 4.9 | 4.8 | 4.7 | 4.8 | 4.8 |
| B8 | 4.4 | 4.6 | 4.5 | 4.6 | 4.8 |
| B9 | 5.3 | 5.1 | 5.0 | 5.0 | 5.0 |
